Results reported in paper PMC9257163, “Fluorescence Detection of Cancer Stem Cell Markers Using a Sensitive Nano-Aptamer Sensor”.

Legend:
[1] = target: TGF-β1 (UniProt P01137 279-390); experiment: competition (FRET turn-on displacement of AuNPs-ssRNA); 2 uM protein; QD-aptamers redispersed in PBS; sensor annealed from 95 °C to room temperature; binding buffer, pH and temperature not stated in the material; details: chain copies: 2; label: CdSe/ZnS QD on aptamer 5' end; AuNP (25 nm) on ssRNA 5' end; partially complementary RNA duplex; about 7 aptamers per QD; ssRNA displaced by protein
Chain of TGF-β1 (P01137 279-390): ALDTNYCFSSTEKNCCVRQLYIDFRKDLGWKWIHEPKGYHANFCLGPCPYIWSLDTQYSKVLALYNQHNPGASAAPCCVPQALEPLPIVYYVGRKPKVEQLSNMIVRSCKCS

[2] = target: T1, IL-1α (UniProt P01583 113-271); experiment: as above; details: label: CdSe/ZnS QD on aptamer 5' end; AuNP (25 nm) on ssRNA 5' end; partially complementary RNA duplex; about 7 aptamers per QD; ssRNA displaced by protein
T1 sequence: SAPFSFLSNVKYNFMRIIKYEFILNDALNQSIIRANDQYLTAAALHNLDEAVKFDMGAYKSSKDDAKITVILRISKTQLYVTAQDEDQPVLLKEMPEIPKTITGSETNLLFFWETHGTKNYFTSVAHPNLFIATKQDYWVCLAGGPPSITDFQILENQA

[3] = target: EGFR (UniProt P00533 25-645); experiment: as above; details: chain copies: 2; label: CdSe/ZnS QD on aptamer 5' end; AuNP (25 nm) on ssRNA 5' end; partially complementary RNA duplex; about 7 aptamers per QD; ssRNA displaced by protein
[4] = target: T2, CD133 (prominin-1) (UniProt O43490 20-865); experiment: competition (FRET turn-on displacement of AuNPs-ssRNA); 0-1.539 uM CD133, 5 nM QD-aptamer; maximum recovery 68%; LOD 6.99 nM (not a Kd); QD-aptamers redispersed in PBS; sensor annealed from 95 °C to room temperature; binding buffer, pH and temperature not stated in the material; details: label: CdSe/ZnS QD on aptamer 5' end; AuNP (25 nm) on ssRNA 5' end; partially complementary RNA duplex; about 7 aptamers per QD; ssRNA displaced by protein
T2 sequence: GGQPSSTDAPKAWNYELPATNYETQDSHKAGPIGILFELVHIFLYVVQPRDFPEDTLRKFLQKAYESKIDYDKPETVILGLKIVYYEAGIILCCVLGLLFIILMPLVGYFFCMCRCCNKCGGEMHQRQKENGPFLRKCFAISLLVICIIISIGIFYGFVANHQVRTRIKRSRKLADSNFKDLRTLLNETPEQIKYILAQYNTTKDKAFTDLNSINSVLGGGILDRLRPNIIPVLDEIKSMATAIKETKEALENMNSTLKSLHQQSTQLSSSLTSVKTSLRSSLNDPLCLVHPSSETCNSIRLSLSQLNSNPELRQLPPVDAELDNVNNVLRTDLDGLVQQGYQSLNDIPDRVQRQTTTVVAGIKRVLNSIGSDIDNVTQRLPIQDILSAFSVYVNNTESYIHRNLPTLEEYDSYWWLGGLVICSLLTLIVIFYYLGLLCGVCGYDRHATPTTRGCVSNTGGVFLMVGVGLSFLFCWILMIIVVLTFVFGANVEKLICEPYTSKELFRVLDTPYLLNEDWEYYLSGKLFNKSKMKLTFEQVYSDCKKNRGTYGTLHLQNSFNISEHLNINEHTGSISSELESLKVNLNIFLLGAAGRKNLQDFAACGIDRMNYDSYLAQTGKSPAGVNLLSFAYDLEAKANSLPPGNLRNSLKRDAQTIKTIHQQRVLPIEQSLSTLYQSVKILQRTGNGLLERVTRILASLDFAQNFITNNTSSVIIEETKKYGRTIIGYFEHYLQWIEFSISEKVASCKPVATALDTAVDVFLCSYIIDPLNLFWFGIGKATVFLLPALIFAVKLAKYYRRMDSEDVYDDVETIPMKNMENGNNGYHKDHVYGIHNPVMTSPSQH

B1: CD133 aptamer sensor (QD-aptamer hybridized to AuNPs-ssRNA) (mixed)
RNA 1: CCCUCCUACAUAGGG
RNA 2: CCCUAUG
modifications: 5'-NH2 on aptamer; 5'-SH on ssRNA
binding result [1]: no binding | binding result [2]: no binding | binding result [3]: no binding | binding result [4]: binds
